Data set [1] concerns the target human complement C5 in serum (Homo sapiens) (UniProt P01031+P01031). Put plainly: cell_activity. The conditions noted are these: 2'-F pyrimidines and 2'-OMe purines as printed, CGCU unmodified; complement-dependent sheep erythrocyte hemolysis.
Data set [2] concerns the target T1, human C5a (L-form) (Homo sapiens) (UniProt P01031).
T1 sequence: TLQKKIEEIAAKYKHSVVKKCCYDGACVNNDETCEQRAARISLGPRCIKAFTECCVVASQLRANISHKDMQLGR
Put plainly: SPR. The settings on record: L-RNA [all (L-RNA)]; 37 C, Mg, Ca.

Sequence of human complement C5 in serum (Homo sapiens) (P01031 19-673 T389I, one chain of several): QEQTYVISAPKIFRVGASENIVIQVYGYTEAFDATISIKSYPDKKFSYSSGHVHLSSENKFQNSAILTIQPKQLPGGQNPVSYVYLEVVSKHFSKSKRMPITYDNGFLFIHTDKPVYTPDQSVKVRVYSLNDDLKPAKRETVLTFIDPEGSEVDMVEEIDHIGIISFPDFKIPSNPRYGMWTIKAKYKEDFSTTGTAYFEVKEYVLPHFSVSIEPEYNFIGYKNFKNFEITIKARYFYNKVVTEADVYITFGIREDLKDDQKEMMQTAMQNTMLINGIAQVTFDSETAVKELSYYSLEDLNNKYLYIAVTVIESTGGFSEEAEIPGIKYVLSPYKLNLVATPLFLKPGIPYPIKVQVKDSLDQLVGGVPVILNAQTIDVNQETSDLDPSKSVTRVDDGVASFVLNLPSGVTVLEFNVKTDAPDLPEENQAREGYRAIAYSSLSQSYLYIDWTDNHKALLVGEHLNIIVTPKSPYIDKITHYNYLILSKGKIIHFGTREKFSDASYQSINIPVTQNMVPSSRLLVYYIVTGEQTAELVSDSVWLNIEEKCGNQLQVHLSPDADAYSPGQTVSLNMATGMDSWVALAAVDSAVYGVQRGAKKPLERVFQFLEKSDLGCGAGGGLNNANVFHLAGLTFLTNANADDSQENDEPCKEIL

Broadly, the IC50 is the concentration that gives 50% inhibition. Read a low IC50 as greater potency. In data set [1], C5C6 aptamer returned an IC50 of 1000 nM.
Usually Kd stands for the constant that tells how readily two partners part at equilibrium. A high value points to lower affinity. For “UGCUGGACAGGACCAAGGUAAGGGCGGACCGAAAAACCUAGCAGCA [182-A5-002]”, in data set [2], the Kd amounted to 0.3 nM.

Values taken from patent publication US20120065254.
